Values of other authors as cited in paper PMC8909277.

How the values were obtained:
claudin-9 (Homo sapiens) = claudin-9 (Homo sapiens) (UniProt O95484); assay: BLI
claudin-4 (Homo sapiens) = claudin-4 (Homo sapiens) (UniProt O14493); assay: SPR
UniProt O14493, sequence (O14493 whole entry): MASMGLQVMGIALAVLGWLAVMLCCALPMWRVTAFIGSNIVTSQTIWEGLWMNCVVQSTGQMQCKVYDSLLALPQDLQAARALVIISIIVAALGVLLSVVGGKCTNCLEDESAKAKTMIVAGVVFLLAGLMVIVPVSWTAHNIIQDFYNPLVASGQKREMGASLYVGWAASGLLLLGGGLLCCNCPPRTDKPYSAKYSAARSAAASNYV

UniProt O95484, sequence (O95484 whole entry): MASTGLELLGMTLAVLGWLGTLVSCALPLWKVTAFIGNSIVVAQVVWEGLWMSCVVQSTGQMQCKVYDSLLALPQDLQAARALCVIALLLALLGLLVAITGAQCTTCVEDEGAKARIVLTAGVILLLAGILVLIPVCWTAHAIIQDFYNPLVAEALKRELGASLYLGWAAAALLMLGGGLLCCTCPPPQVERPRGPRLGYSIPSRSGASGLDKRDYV

Substance | Kd (claudin-9 (Homo sapiens)) [nM] | Kd (claudin-4 (Homo sapiens)) [nM]
CpE (from UniProt P01558) | 5 | –
cCpE C-terminal domain (from UniProt P01558) | 5 | 3.4
